Results taken from patent US20200297760A1 (JUNO THERAPEUTICS, published 2020).

Columns and labels:
HLA-A*03:01 = target: T1, HLA-A*03:01 (human); test: REVEAL MHC-peptide binding assay, recombinant HLA
T1 construct: recombinant MHC class I molecule incubated with the synthetic peptide (REVEAL, ProImmune)
Method: (§1) Specifically, assessment was of a series of overlapping 9-mer peptides derived from the sequence […] (set forth in SEQ ID NO: 7), which contains a portion of the CD28 transmembrane domain and 4-1BB costimulatory domain spanning the junction between the domains (bond joining the two amino acids noted in underline). In addition, a series of overlapping 9-mer peptides of each of a number of different variants of this portion also were assessed, each variant containing a mutation or mutations in this region as described in Example 2.
(§2) The various 9-mer overlapping peptides were synthesized and their purity tested by MALDI-TOF Mass Spectrometry.

[1] = target: HLA-A*11:01 (recombinant MHC class I molecule) (human); test: REVEAL MHC-peptide binding assay, recombinant HLA-A*11:01
Method: as §1, §2

[2] = target: HLA-B*08:01 (recombinant MHC class I molecule) (human); test: REVEAL MHC-peptide binding assay, recombinant HLA-B*08:01
Method: as §1, §2

B1: FWVKRGLKK (peptide)
peptide: FWVKRGLKK
notes: synthetic 9-mer variant; the entry already carries the change
- In Vitro Score (HLA-A*03:01): 2.7 % of positive control peptide

B2: FWVKRGNKK (peptide)
peptide: FWVKRGNKK
notes: as for B1
- In Vitro Score (HLA-A*03:01): 3.6 % of positive control peptide

Binder: WVQRGSKKL [Synthetic peptide WVQRGSKKL]
- In Vitro Score [1]: 5.9 score, % of positive control peptide

Binder: IFWVKRGRK [Synthetic peptide IFWVKRGRK]
- In Vitro Score [2]: 0.4 score, % of positive control peptide
- In Vitro Score [1]: 29.3 score, % of positive control peptide

Binder: IFWVLRGRK [Synthetic peptide IFWVLRGRK]
- In Vitro Score [2]: 0 score, % of positive control peptide
- In Vitro Score [1]: 29.3 score, % of positive control peptide

Binder: IFWVQRGSK [Synthetic peptide IFWVQRGSK]
- In Vitro Score [2]: 0 score, % of positive control peptide
- In Vitro Score [1]: 103 score, % of positive control peptide

Binder: FWVKRGRKK [Synthetic peptide FWVKRGRKK]
- In Vitro Score [2]: 0 score, % of positive control peptide
- In Vitro Score [1]: 6.5 score, % of positive control peptide

Binder: FWVKRGLKK [Synthetic peptide FWVKRGLKK]
- In Vitro Score [2]: 6.3 score, % of positive control peptide
- In Vitro Score [1]: 25.3 score, % of positive control peptide

Binder: FWVKRGAKK [Synthetic peptide FWVKRGAKK]
- In Vitro Score [2]: 0.3 score, % of positive control peptide
- In Vitro Score [1]: 13.2 score, % of positive control peptide

Binder: FWVKRGHKK [Synthetic peptide FWVKRGHKK]
- In Vitro Score [2]: 0.4 score, % of positive control peptide
- In Vitro Score [1]: 27.6 score, % of positive control peptide

Binder: FWVQRGSKK [Synthetic peptide FWVQRGSKK]
- In Vitro Score [2]: 0 score, % of positive control peptide
- In Vitro Score [1]: 6.8 score, % of positive control peptide

Binder: FWVKRGNKK [Synthetic peptide FWVKRGNKK]
- In Vitro Score [2]: 0.1 score, % of positive control peptide
- In Vitro Score [1]: 7.3 score, % of positive control peptide

Binder: FWVQRGRKK [Synthetic peptide FWVQRGRKK]
- In Vitro Score [2]: 1.9 score, % of positive control peptide
- In Vitro Score [1]: 5.7 score, % of positive control peptide

Binder: FWVHRGRKK [Synthetic peptide FWVHRGRKK]
- In Vitro Score [2]: 0 score, % of positive control peptide
- In Vitro Score [1]: 5.6 score, % of positive control peptide

Binder: FWVKRGSKK [Synthetic peptide FWVKRGSKK]
- In Vitro Score [2]: 0.1 score, % of positive control peptide
- In Vitro Score [1]: 5.6 score, % of positive control peptide

Binder: FWVQRGNKK [Synthetic peptide FWVQRGNKK]
- In Vitro Score [2]: 0 score, % of positive control peptide
- In Vitro Score [1]: 5.9 score, % of positive control peptide

Binder: FWVLRGRKK [Synthetic peptide FWVLRGRKK]
- In Vitro Score [2]: 0 score, % of positive control peptide
- In Vitro Score [1]: 5 score, % of positive control peptide

Binder: FWVQRGAKK [Synthetic peptide FWVQRGAKK]
- In Vitro Score [2]: 0 score, % of positive control peptide
- In Vitro Score [1]: 18.3 score, % of positive control peptide

Binder: FWVARGRKK [Synthetic peptide FWVARGRKK]
- In Vitro Score [2]: 0 score, % of positive control peptide

Binder: AFIIFWVKR [Synthetic peptide AFIIFWVKR]
- In Vitro Score [2]: 1.9 score, % of positive control peptide
- In Vitro Score [1]: 25.9 score, % of positive control peptide

Binder: AFIIFWVLR [Synthetic peptide AFIIFWVLR]
- In Vitro Score [2]: 0.2 score, % of positive control peptide
- In Vitro Score [1]: 17.2 score, % of positive control peptide

Binder: AFIIFWVQR [Synthetic peptide AFIIFWVQR]
- In Vitro Score [2]: 0 score, % of positive control peptide
- In Vitro Score [1]: 15 score, % of positive control peptide

Binder: FIIFWVKRG [Synthetic peptide FIIFWVKRG]
- In Vitro Score [2]: 0.1 score, % of positive control peptide
- In Vitro Score [1]: 0.4 score, % of positive control peptide

Binder: FIIFWVQRG [Synthetic peptide FIIFWVQRG]
- In Vitro Score [2]: 0.6 score, % of positive control peptide
- In Vitro Score [1]: 1.5 score, % of positive control peptide

Binder: FIIFWVLRG [Synthetic peptide FIIFWVLRG]
- In Vitro Score [2]: 0.2 score, % of positive control peptide
- In Vitro Score [1]: 2.4 score, % of positive control peptide

Binder: FIIFWVSRG [Synthetic peptide FIIFWVSRG]
- In Vitro Score [2]: 0.4 score, % of positive control peptide
- In Vitro Score [1]: 5.1 score, % of positive control peptide
